The values below come from patent US20190248904A1 (Astellas, published 2019).

Where two headings read alike, the source gives them in different places.

As a reminder, the EC50 is the concentration that produces a half-maximal response. A lower EC50 goes with greater potency.

For assay [1], the target named is T1, human BDCA-2 variant (human, UniProt Q8WTT0 1-213).
T1 construct: It was expressed on CHO-K1 cells together with full-length human FcεRIγ; also called human BDCA-2 variant/CHO cells; extracellular region of human BDCA-2
T1 chain: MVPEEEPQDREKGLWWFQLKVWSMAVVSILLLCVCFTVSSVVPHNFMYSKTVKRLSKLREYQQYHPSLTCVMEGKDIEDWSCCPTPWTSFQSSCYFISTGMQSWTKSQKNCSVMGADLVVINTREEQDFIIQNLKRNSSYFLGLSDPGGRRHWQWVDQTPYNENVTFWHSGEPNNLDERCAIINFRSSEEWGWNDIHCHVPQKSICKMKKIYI
The experiment in a line: cell ELISA on human BDCA-2 variant/CHO cells, chemiluminescence. The protocol: (§1) In order to measure the antigen-specific binding activity of the antibody, the binding of the antibody to the human BDCA-2 variant/CHO cells prepared in Example 1 was evaluated. Specifically, the human BDCA-2 variant/CHO cells were first suspended in an RPMI1640 culture medium (Life Technologies, Inc.) at 2×10⁵ cells/mL, seeded at 50 μL per well in a poly-D-lysine-coated 384-well plate (Greiner Bio-One), and cultured overnight in a CO₂ incubator set at 37° C. Then, the culture medium was removed, and 20 μL of each of a hybridoma-derived antibody (the antibody purified in Example 2) and a comparative antibody which had been diluted stepwise from a concentration of 10000 ng/mL to 4.6 ng/mL (8 steps in a 3-fold dilution series) with a diluent solution (a Hank's Balanced Salt solution supplemented with 1% bovine serum albumin) was added thereto and reacted at room temperature for 1 hour. Next, the assay plate was washed with a washing solution (a Hank's Balanced Salt solution supplemented with 0.1% bovine serum albumin) and 20 μL of an HRP-labeled rabbit anti-mouse IgG antibody ([…]: Dako Ltd.) which had been diluted 5000-fold with a diluent solution was added thereto, and reacted at room temperature for 30 minutes. Thereafter, the assay plate was washed with a washing solution, 30 μL of BM-Chemiluminescence ELISA Substrate (POD) (Roche Diagnostics. Inc.) which is a chemiluminescence detection reagent was added thereto, and the amount of chemiluminescence thereof was measured by an EnVision counter (PerkinElmer, Inc.). For the measurement results, the EC50 values were determined by fitting a four-parameter logistic curve. In this test, as a comparative antibody, AC144 (Non-Patent Documents 1 to 4, Miltenyi Biotec) which is a mouse antibody against human BDCA-2 was used.
A general note: In an ELISA, binding on a coated surface is turned into a signal by an enzyme label.

The target in assay [2] is T2, human BDCA-2 (human, UniProt Q8WTT0 1-213).
T2 sequence: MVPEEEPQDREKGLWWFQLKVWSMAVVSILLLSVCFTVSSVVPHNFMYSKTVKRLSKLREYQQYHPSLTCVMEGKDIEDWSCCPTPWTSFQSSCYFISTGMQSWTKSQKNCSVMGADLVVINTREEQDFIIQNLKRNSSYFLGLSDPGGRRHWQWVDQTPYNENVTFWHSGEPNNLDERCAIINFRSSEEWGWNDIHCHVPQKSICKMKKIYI
The assay can be described thus: cell-based or functional assay.

In assay [3] the target is T1, human BDCA-2 variant. The assay can be described thus: cell ELISA on human BDCA-2 variant/CHO cells, average of three independent tests. The protocol:
as §1
According to the method of Example 3, for a fully human antibody, the binding activity of the antibody against an extracellular region of human BDCA-2 was evaluated. […]

The target of assay [4] is T2, human BDCA-2. The assay can be described thus: cell-based or functional assay. This is another data set of the same source.
Assay [5] addresses T2, human BDCA-2. The experiment in a line: cell-based or functional assay. This is another data set of the same source.

As to AC144 (antibody), in assay [1], the EC50 worked out at 0.133 µg/mL. In assay [2], this molecule came in with an IC50 of inhibition of IFNα production from ODN2216-stimulated human PBMC (pDCs) of 2.57 ng/mL; an IC50 of inhibition of IFNα production from human PBMC (pDCs), first time of 2.12 ng/mL; an IC50 of inhibition of IFNα production from human PBMC (pDCs), second time of 3.83 ng/mL; an IC90 of inhibition of IFNα production from ODN2216-stimulated human PBMC (pDCs) of 56.5 ng/mL. In assay [2], this molecule came in with an IC90 of inhibition of IFNα production from human PBMC (pDCs), first time of 20.6 ng/mL and an IC90 of inhibition of IFNα production from human PBMC (pDCs), second time of 26.8 ng/mL.

B1: Fully human BDC3-12F5 (antibody, human IgG1, kappa, V domains shown)
VH: EVQLVESGGGLVQPGGSLRLSCAASGFTFSNYLMNWVRQAPGKGLEWVANIEQDGSEKYYVDSVKGRFTISRDNAKNSLYLQMNSLRAEDTAVYFCARDGDTAMITFDFWGQGTLVTVSS
VL: DIQMTQSPSSVSASVGDRVTITCRASQGIRRWLAWYQQKPGKAPKLLIYAASSLQRGVPSRFSGSGSGTDFTLTISSLQPEDFATYYCQQANSFPWTFGQGTKVEIKR
modifications: deletion of lysine at the C terminal of the heavy chain in most of the purified antibody (Example 6)
notes: Human Igγ1 / human Igκ constant regions, expressed in CHOK1SV cells; also called fully human antibody of BDC3-12F5
The molecule B1 yielded an EC50 in assay [3] of 0.088 µg/mL. In addition, in assay [4], the “IC50 of inhibition of IFNα production from human PBMC (pDCs), first time” value (“IC50 of inhibition … first time” for short) was determined as 0.54 ng/mL; the “IC50 of inhibition of IFNα production from human PBMC (pDCs), second time” value (from here on “IC50 of inhibition … second time”) amounted to 0.24 ng/mL; the “IC90 of inhibition of IFNα production from human PBMC (pDCs), first time” value (shortened to “IC90 of inhibition … first time”) was 1.19 ng/mL; the “IC90 of inhibition of IFNα production from human PBMC (pDCs), second time” value (shortened to “IC90 of inhibition … second time”) was found to be 1.98 ng/mL.

B2: BDC3-12F5 (chimeric) (antibody, V domains shown)
VH: EVQLVESGGGLVQPGGSLRLSCAASGFTFSNYLMNWVRQAPGKGLEWVANIEQDGSEKYYVDSVKGRFTISRDNAKNSLYLQMNSLRAEDTAVYFCARDGDTAMITFDFWGQGTLVTVSS
VL: DIQMTQSPSSVSASVGDRVTITCRASQGIRRWLAWYQQKPGKAPKLLIYAASSLQRGVPSRFSGSGSGTDFTLTISSLQPEDFATYYCQQANSFPWTFGQGTKVEIKR
notes: Hybridoma-derived VelocImmune antibody: human variable regions with mouse constant regions
For B2, a half-maximal effect in assay [1] (EC50) was put at 0.057 µg/mL. Also, in assay [5], the “IC50 of inhibition of IFNα production from ODN2216-stimulated human PBMC (pDCs)” value was 0.23 ng/mL and the “IC90 of inhibition of IFNα production from ODN2216-stimulated human PBMC (pDCs)” value is 0.93 ng/mL.

B3: BDC3-12A2 (chimeric) (antibody, V domains shown)
VH: QVQLVESGGGVVQPGRSLRLSCAASGFTLSSYGMHWVRQAPGKGLEWVAVIWYDGNDKYYADSVKGRFTISRDNSKNTLYLQVNSLRAEDTAVYYCARGTGTPYWYFDLWGRGTLVTVSS
VL: EIVLTQSPATLSLSPGERATLSCRASQSVNNYLAWYQQKPGQAPRLLIYDASNRATGIPARFSGSGSGTDFTLTISSLEPEDFAVYYCQQRSTWPPYTFGQGTKLEIKR
notes: as for B2
In turn, B3 registered an EC50 in assay [1] of 0.059 µg/mL. Also, in assay [5], the “IC50 of inhibition of IFNα production from ODN2216-stimulated human PBMC (pDCs)” value amounted to 0.27 ng/mL and the “IC90 of inhibition of IFNα production from ODN2216-stimulated human PBMC (pDCs)” value worked out at 1.03 ng/mL.

B4: Fully human BDC3-12A2 (antibody, human IgG1, kappa, V domains shown)
VH: QVQLVESGGGVVQPGRSLRLSCAASGFTLSSYGMHWVRQAPGKGLEWVAVIWYDGNDKYYADSVKGRFTISRDNSKNTLYLQVNSLRAEDTAVYYCARGTGTPYWYFDLWGRGTLVTVSS
VL: EIVLTQSPATLSLSPGERATLSCRASQSVNNYLAWYQQKPGQAPRLLIYDASNRATGIPARFSGSGSGTDFTLTISSLEPEDFAVYYCQQRSTWPPYTFGQGTKLEIKR
modifications: pyroglutamylation at the N terminal of the heavy chain and deletion of lysine at the C terminal of the heavy chain in most of the purified antibody (Example 6)
notes: Human Igγ1 / human Igκ constant regions, expressed in CHOK1SV cells; also called fully human antibody of BDC3-12A2
With B4, the EC50 in assay [3] is 0.08 µg/mL. Moreover, in assay [4], the “IC50 of inhibition … first time” value came out at 0.35 ng/mL; the “IC50 of inhibition … second time” value was 0.68 ng/mL; the “IC90 of inhibition … first time” value was determined as 1.94 ng/mL; the “IC90 of inhibition … second time” value stood at 1.76 ng/mL.

B5: Fully human BDC13-32E3 (antibody, human IgG1, kappa, V domains shown)
VH: QVQLQESGPGLVKPSQTLSLTCTVSGGSISSGGYYWNWIRQHPGKGLEWIGYIYYSGNTYYNPSLKSRVTISVDTSKNQFSLKLSSVTAADAAVYHCARGYGDYGGGYFDYWGQGTLVTVSS
VL: DIQMTQSPSSLSASVGDRVTITCQASQDISNYLNWYQQKPGKAPKFLIYDVSNLETGVPSRFSGSGSGTDFTFTISSLQPEDIATYYCQQYDNLPYTFGQGTKLEIKR
modifications: pyroglutamylation at the N terminal of the heavy chain and deletion of lysine at the C terminal of the heavy chain in most of the purified antibody (Example 6)
notes: Human Igγ1 / human Igκ constant regions, expressed in CHOK1SV cells; also called fully human antibody of BDC13-32E3
Turning to B5, in assay [3], the midpoint of the response, the EC50, lay at 0.203 µg/mL. Further, in assay [4], the “IC50 of inhibition … first time” value was determined as 0.32 ng/mL; the “IC50 of inhibition … second time” value amounted to 0.59 ng/mL; the “IC90 of inhibition … first time” value was found to be 2.03 ng/mL; the “IC90 of inhibition … second time” value came to 1.25 ng/mL.

B6: BDC13-32E3 (chimeric) (antibody, V domains shown)
VH: QVQLQESGPGLVKPSQTLSLTCTVSGGSISSGGYYWNWIRQHPGKGLEWIGYIYYSGNTYYNPSLKSRVTISVDTSKNQFSLKLSSVTAADAAVYHCARGYGDYGGGYFDYWGQGTLVTVSS
VL: DIQMTQSPSSLSASVGDRVTITCQASQDISNYLNWYQQKPGKAPKFLIYDVSNLETGVPSRFSGSGSGTDFTFTISSLQPEDIATYYCQQYDNLPYTFGQGTKLEIKR
notes: as for B2
Molecule B6 showed an EC50 in assay [1] of 0.096 µg/mL. Also, in assay [5], the “IC50 of inhibition of IFNα production from ODN2216-stimulated human PBMC (pDCs)” value was found to be 0.43 ng/mL and the “IC90 of inhibition of IFNα production from ODN2216-stimulated human PBMC (pDCs)” value was 1.03 ng/mL.
